Results as given in the supplement of paper PMC12042874.
± gives the uncertainty stated by the source.

Assay: amyloid nucleation score (Sup35N fusion, yeast selection) (log enrichment); library NNK3; higher = more nucleation; inactive = no reads after selection
How it was run: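 Sup35N fusions to peptides of 20 random codons were expressed in psi-negative yeast, induced 24 hours with 100 μM copper sulfate, and grown 7 days at 30°C on medium lacking adenine and uracil. Input and output plasmid inserts were sequenced by Illumina. The nucleation score is the DiMSum log enrichment of output over input reads, centred on the mode score of non-aggregating sequences. Sequences with under 100 input reads were excluded.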

Substance: GGTVFSNCVGVRRLNMYINY
- amyloid nucleation score: inactive

Substance: GGWIY
- amyloid nucleation score: inactive

Substance: GGYSQKLYILYDYLFENYYS
- amyloid nucleation score: inactive

Substance: GGYVDLRLMT
- amyloid nucleation score: inactive

Substance: GHCEYVVCYVNCRFVQMSVR
- amyloid nucleation score: 1.65 ± 0.093

Substance: GHNVQGNRLMITYDLNIVGS
- amyloid nucleation score: inactive

Substance: GHRHQFSHATVNDVKSRV
- amyloid nucleation score: inactive

Substance: GHVAHLINILYVNSTIPQTG
- amyloid nucleation score: inactive

Substance: GIMSCQ
- amyloid nucleation score: 0.021 ± 0.88

Substance: GINDLISSALNNSRRLRTVG
- amyloid nucleation score: inactive

Substance: GIREAV
- amyloid nucleation score: inactive

Substance: GIRVF
- amyloid nucleation score: inactive

Substance: GIRVSLGVSFRECFNNSVSR
- amyloid nucleation score: 2.43 ± 0.053

Substance: GISRMGMAEDPDSGWSHDYY
- amyloid nucleation score: inactive

Substance: GISYLVRNSGAKRGD
- amyloid nucleation score: inactive

Substance: GITRVRSSFVSAASHV
- amyloid nucleation score: inactive

Substance: GIVSYCICIFGNFQK
- amyloid nucleation score: 2.64 ± 0.064

Substance: GKCLLYRFILILLHP
- amyloid nucleation score: -0.155 ± 0.93

Substance: GKCVGEPPAQSEKTWRNGSL
- amyloid nucleation score: inactive

Substance: GKIEDYCLVRESQAIPSLLQ
- amyloid nucleation score: inactive

Substance: GKIFMSVTFF
- amyloid nucleation score: 2.43 ± 0.054

Substance: GKLSNH
- amyloid nucleation score: inactive

Substance: GKWKIKQ
- amyloid nucleation score: inactive

Substance: GLCNTYCFHHCFRWVR
- amyloid nucleation score: 0.769 ± 0.24

Substance: GLCSFR
- amyloid nucleation score: inactive

Substance: GLDRRKICKLHGYGNS
- amyloid nucleation score: inactive

Substance: GLFIGYDVQ
- amyloid nucleation score: inactive

Substance: GLFLGYSLIASVIGRLVDNL
- amyloid nucleation score: inactive

Substance: GLGYWAKGSHLWVLLRLLNH
- amyloid nucleation score: inactive

Substance: GLLMFLNVCLVVTVSARTYS
- amyloid nucleation score: inactive

Substance: GLMERNDMSEYSSAG
- amyloid nucleation score: inactive

Substance: GLNLISISFRAGFAGMHRRA
- amyloid nucleation score: 1.82 ± 0.099

Substance: GLSKKKECGFLLARIVVVVV
- amyloid nucleation score: inactive

Substance: GLTLRRWINAFHRHVGNKGQ
- amyloid nucleation score: 0.592 ± 0.24

Substance: GLTVCTSYLSISAYDMYANL
- amyloid nucleation score: 1.29 ± 0.067

Substance: GLYVVYFNILTTKGYQLIVM
- amyloid nucleation score: inactive

Substance: GMCKGMVIGSAVDFTMFSAA
- amyloid nucleation score: inactive

Substance: GMFARHVFMIIEPHRIIVFH
- amyloid nucleation score: inactive

Substance: GMQAGTGSKCCGRTGQI
- amyloid nucleation score: inactive

Substance: GMQPVQQ
- amyloid nucleation score: inactive

Substance: GMVMVLQTTRYNCHMMRELQ
- amyloid nucleation score: inactive

Substance: GNALSAFPVGSFRKVVRCHG
- amyloid nucleation score: inactive

Substance: GNDNYVVLFNCDV
- amyloid nucleation score: inactive

Substance: GNELQSEFLDFLTCRERGKG
- amyloid nucleation score: inactive

Substance: GNLASICVRLCWLCARLWST
- amyloid nucleation score: inactive

Substance: GNLDTS
- amyloid nucleation score: -0.668 ± 1

Substance: GNNRGTVSWVERGAWALTKA
- amyloid nucleation score: inactive

Substance: GPARTRWILPRVLGCTYRAA
- amyloid nucleation score: inactive

Substance: GPILL
- amyloid nucleation score: inactive

Substance: GPNDLSMAFRTLYDQAVPYV
- amyloid nucleation score: -0.521 ± 1

Substance: GQAVNYFGGA
- amyloid nucleation score: inactive

Substance: GQWLSDTR
- amyloid nucleation score: inactive

Substance: GRARNHHRKNRGIGL
- amyloid nucleation score: inactive

Substance: GRHRFYSAIKQVQR
- amyloid nucleation score: inactive

Substance: GRIFYWRDMDTYQR
- amyloid nucleation score: inactive

Substance: GRKAWDEL
- amyloid nucleation score: inactive

Substance: GRMWSACLGYMWGCFWREFW
- amyloid nucleation score: inactive

Substance: GRPIKWKKRSAVK
- amyloid nucleation score: inactive

Substance: GRPRVI
- amyloid nucleation score: inactive

Substance: GRQYVCYYTFLKLYWLKSMW
- amyloid nucleation score: inactive

Substance: GRSFCVAMVVIEGVLYRDLS
- amyloid nucleation score: 0.441 ± 0.32

Substance: GRSRLQQVIHLAFTIKSVNG
- amyloid nucleation score: inactive

Substance: GRTSWGRRR
- amyloid nucleation score: inactive

Substance: GRVSYCITRME
- amyloid nucleation score: inactive

Substance: GRYCWCSLLAKYEMSLPRAR
- amyloid nucleation score: -0.405 ± 0.8

Substance: GSACFPYFYTYSFRFLVAC
- amyloid nucleation score: inactive

Substance: GSEHYLPSYYRFFLLVFYDV
- amyloid nucleation score: inactive

Substance: GSEQSVEDGFAWMKDTYFCL
- amyloid nucleation score: inactive

Substance: GSGCVIYIL
- amyloid nucleation score: inactive

Substance: GSIVFGCSWASQSVCQDQWV
- amyloid nucleation score: inactive

Substance: GSKAHNDIDRGGSWMGWNIA
- amyloid nucleation score: inactive

Substance: GSLFVI
- amyloid nucleation score: inactive

Substance: GSLVRV
- amyloid nucleation score: inactive

Substance: GSMIFFSICSHFLYLLHTYT
- amyloid nucleation score: inactive

Substance: GSMSSCLVKRLNC
- amyloid nucleation score: inactive

Substance: GSPVRWRGPGFTSPRLTRA
- amyloid nucleation score: 0.766 ± 0.26

Substance: GSSYTGTEVVCKLDFSHVFR
- amyloid nucleation score: 0.92 ± 0.13

Substance: GSVFTRFVSREVFCWDACCR
- amyloid nucleation score: inactive

Substance: GSVGILHFGKYHSIVYSACN
- amyloid nucleation score: inactive

Substance: GSVRNSDKKWVPIVVYIPLQ
- amyloid nucleation score: inactive

Substance: GSVSDGTILKLFHVSDRGTW
- amyloid nucleation score: inactive

Substance: GSYFN
- amyloid nucleation score: inactive

Substance: GSYLDDRGSGASIATLLVVM
- amyloid nucleation score: inactive

Substance: GTDSFAIYSWKIRLLSERYP
- amyloid nucleation score: inactive

Substance: GTEYLV
- amyloid nucleation score: inactive

Substance: GTGTRSHTLA
- amyloid nucleation score: inactive

Substance: GTLLMMVFGTVHS
- amyloid nucleation score: inactive

Substance: GTLYAKSVRNKGSS
- amyloid nucleation score: inactive

Substance: GTMIRQLERELSHMREVTYI
- amyloid nucleation score: inactive

Substance: GTWSVMCSYEPMAR
- amyloid nucleation score: inactive

Substance: GVDLDLLICGYMLWMDYCSG
- amyloid nucleation score: inactive

Substance: GVDRRIR
- amyloid nucleation score: inactive

Substance: GVDSARQRSDHVNRERSSGC
- amyloid nucleation score: inactive

Substance: GVGCTKSECRSICMPKHP
- amyloid nucleation score: inactive

Substance: GVGNWKP
- amyloid nucleation score: inactive

Substance: GVIWSMWIASL
- amyloid nucleation score: inactive

Substance: GVLASIKELH
- amyloid nucleation score: inactive

Substance: GVLSLLFSYIIVYEWKEMGN
- amyloid nucleation score: inactive

Substance: GVMGYSSYSLSAENTVYSPW
- amyloid nucleation score: inactive

Substance: GVRLNEIGRIMIRQACGIWE
- amyloid nucleation score: inactive

Substance: GVRNWG
- amyloid nucleation score: inactive

Substance: GVSIGNCTMKGEVDFMVDGK
- amyloid nucleation score: inactive

Substance: GVSILCLVLWSMWTLGGESW
- amyloid nucleation score: inactive

Substance: GVSMERLKFDIVL
- amyloid nucleation score: inactive

Substance: GVSVMSGQAMYVRKRSALEM
- amyloid nucleation score: inactive

Substance: GVVKRQRLWTVGMNPKIEAW
- amyloid nucleation score: inactive

Substance: GVVVIPS
- amyloid nucleation score: 0.933 ± 0.16

Substance: GVYMQSLLYRCFVFYNYKLD
- amyloid nucleation score: inactive

Substance: GVYSVTCMFYKWEVGWSSSD
- amyloid nucleation score: inactive

Substance: GVYYSCAFSTLIKGVNRSTV
- amyloid nucleation score: inactive

Substance: GWHQVTGFMYAIVFVTART
- amyloid nucleation score: inactive

Substance: GWNILLNLNIEYSTLYIVNL
- amyloid nucleation score: 2.44 ± 0.06

Substance: GWRCCWIIWADAVYE
- amyloid nucleation score: 3.05 ± 0.075

Substance: GWVLILKMGYFRSLWNITVL
- amyloid nucleation score: inactive

Substance: GWWRSFPLQFKSPVYLNRLC
- amyloid nucleation score: inactive

Substance: GYFRWSRAFQLPWNSWSEWQ
- amyloid nucleation score: inactive

Substance: GYKGR
- amyloid nucleation score: inactive

Substance: GYKIW
- amyloid nucleation score: inactive

Substance: GYMSLLHSKPPFWSNP
- amyloid nucleation score: 0.465 ± 0.64

Substance: GYNCALWDVGCLHVFRPYAN
- amyloid nucleation score: inactive

Substance: GYRKMVTLYVDDGNHVYRFL
- amyloid nucleation score: inactive

Substance: GYRLRQTSARYIAVEWSWKC
- amyloid nucleation score: inactive

Substance: GYSRG
- amyloid nucleation score: inactive

Substance: GYSTRYLSV
- amyloid nucleation score: inactive

Substance: GYTVAKVNFNGWNRL
- amyloid nucleation score: 0.453 ± 0.35

Substance: GYYPLYVTFNSMCEFNIQLQ
- amyloid nucleation score: 3.11 ± 0.051

Substance: HAEPIYFYIVRTLKDG
- amyloid nucleation score: inactive

Substance: HAFFSADSWGNDIELFIYNG
- amyloid nucleation score: inactive

Substance: HCCNIRRARTQF
- amyloid nucleation score: inactive

Substance: HCFIDNKMLPYVMCYPDKKR
- amyloid nucleation score: inactive

Substance: HCSCRNWSLMLGRFFVFVTC
- amyloid nucleation score: inactive

Substance: HCVMNNVAWVLRYTDRRDAL
- amyloid nucleation score: 1.2 ± 0.091

Substance: HCVTLWLKSYL
- amyloid nucleation score: inactive

Substance: HDARGLIIFARSHSAESRVR
- amyloid nucleation score: inactive

Substance: HDDISISESIFRRLQIRVIL
- amyloid nucleation score: inactive

Substance: HEGPKKEGLLAYVKVKRLRR
- amyloid nucleation score: inactive

Substance: HEQDVAPKCWMYVELNQLGW
- amyloid nucleation score: 0.688 ± 0.2

Substance: HERILATGVFEMDLGMLVFR
- amyloid nucleation score: inactive

Substance: HEVAAPRRRHSSMLVAGSAG
- amyloid nucleation score: inactive

Substance: HFGYSGFDYYICTRY
- amyloid nucleation score: 0.049 ± 0.27

Substance: HFKSESRFTN
- amyloid nucleation score: inactive

Substance: HFLFSNQNIRSLNIVFNSRV
- amyloid nucleation score: 2.2 ± 0.073

Substance: HFNEEGAQ
- amyloid nucleation score: -0.309 ± 1.1

Substance: HFRIKNTCFKRCLSVESRKY
- amyloid nucleation score: inactive

Substance: HFVVKV
- amyloid nucleation score: 1.27 ± 0.089

Substance: HGILEWMDCVLTLFTRVGMS
- amyloid nucleation score: inactive

Substance: HGPRLLTSKVRFWRKTLRST
- amyloid nucleation score: inactive

Substance: HHHRLARTPHDIVPRQKLVV
- amyloid nucleation score: inactive

Substance: HHIFVFQGLASLNLHTDWML
- amyloid nucleation score: 1.62 ± 0.1

Substance: HHKMVISVSSRNQSEKRSDW
- amyloid nucleation score: inactive

Substance: HHLSSDVSVLAFCNLPESNR
- amyloid nucleation score: 1.21 ± 0.17

Substance: HIHEDWFFS
- amyloid nucleation score: inactive

Substance: HILWHTSSSGELLPMSP
- amyloid nucleation score: inactive

Substance: HINDAYTCVMLYMGLTRWTI
- amyloid nucleation score: inactive

Substance: HISYNHIGEYVKKSDFECSN
- amyloid nucleation score: inactive

Substance: HIVLLKCIQAAETVAGFKW
- amyloid nucleation score: inactive

Substance: HIWGIRKCDPPLTVVMFQSL
- amyloid nucleation score: inactive

Substance: HKDICLNFSVDHLDVMSQCA
- amyloid nucleation score: inactive

Substance: HKNEVKWFFFQPGKEMLGGR
- amyloid nucleation score: inactive

Substance: HKSINVIRDPGKIVFLTEVI
- amyloid nucleation score: inactive
